Assay results reported in patent US20250345467A1, “DENDRIMER FOR THERAPY AND IMAGING” (priority 2018, published 2025).

What was measured:
[1] = Organ biodistribution, clearance and health monitoring in the prostate cancer xenograft study; format: in vivo, Balb/C nude mice; conditions: Zr-89 labelled, mice bearing DU-145 or PC3 xenografts, whole study (9 days)
Method: The accumulation of two different dendrimer constructs in two different murine xenograft models of prostate cancer (DU145 and PC3 cell lines) was investigated. The two different constructs were compound 1b and 3 which are pre-conjugated with DFO, which were labelled with 89Zr for subsequent imaging studies. The biodistribution was measured by PET-CT out to 9 days in two different tumour xenografts and then validated by ex vivo gamma scintillation of excised organs at day 9.
Dendrimers were labelled and purified, validated by radioTLC prior to injection into the animals. Imaging was conducted in a cohort of n=4 mice for each cell line and each dendrimer. Standard health of the mice was monitored by score sheet and mouse weight over the complete timeframe of the study.
Healthy male Balb/C nude mice (˜20 g) from 8 weeks old were obtained from the ARC and used for this study. Mice were imported into the animal holding facility and monitored for 1 week prior to the study in order to acclimatise to the environment prior to injection of cells. […]
Mice (n=4 per group) bearing DU-145 or PC3 xenografts were injected with Zr-89 labelled dendrimers (compounds 1b and 3) via tail-vein. […] At 216 hrs post-injection, the organs were removed and signal intensity quantified by ex vivo gamma analysis. Faecal pellets were also measured for activity at this timepoint. […]

[2] = tested on: spontaneous gliomas (high grade glioma mouse model); test: PET-MRI tumour imaging study, glioblastoma; format: in vivo, mice; conditions: Zr-89 radiolabelled, approximately 5 MBq; for % ID/g at 40 hrs: 40 hrs post-injection; for % ID/g at 5 days: 5 days post-injection
Excerpt: The aim of this study was to assess the level of accumulation of example radionuclide-containing dendrimers in mice bearing spontaneous gliomas. This model provides a route to effectively assess the ability to both cross the blood-brain-barrier (BBB) as well as accumulate in tumour tissue.
Gt(ROSA)26So^rtm14(CAG-tdTomato)Hze 20023653 was crossed with Pten^tm2MAK; Rb1^tm2Bm; Trp53^tm1Bm; Tg(GFAP-cre/Esr1*,−lacZ)BSbk^31,44-47 (alleles) and backcrossed six generations to latter mice to generate Gt(ROSA)26Sor^tm14(CAG-tdTomato)Hze; Pten^tm2MAK; Rb1^tm2Bm; Trp53^tm1Bm; Tg(GFAP-cre/Esr1*,−lacZ)BSbk (high grade glioma mouse model; HGG). Mice were maintained on a predominantly FVB/NJ background with contributions from 129/SV and C57Bl6. To induce Cre recombinase and thereby tumor formations, 20 mg/ml Tamoxifen (Sigma-Aldrich) dissolved in corn oil (Sigma-Aldrich) was injected intraperitoneally. Up to 200 mg/kg body weight was administered weekly for 3 consecutive weeks after postnatal day (P) 30 (range P30-44). Animal's health and welfare was monitored up to twice daily and animals were euthanized based on morbidity requirement.
91 μL Zr-89 oxalate in 1 M oxalic acid (Perkin Elmer) was diluted with 78 μL 1 M Na2CO3 to neutralize pH. Dendrimer 1b was dissolved in 0.5 M HEPES (pH 7.5). 33 μL neutralized Zr-89 stock (approximately 15 MBq) was added to the dendrimer (146 μg) to give 100-fold excess of the dendrimer to Zr-89 and labelling was allowed to proceed at room temperature for 1 hour. The sample was then buffer exchanged into phosphate-buffered saline using Zeba Spin Desalting Columns (7 kDa MWCO, Thermo Fisher Scientific). 1 μL sample of the solution was taken and spotted on thin layer chromatography paper (Agilent iTLC-SG Glass microfiber chromatography paper impregnated with silica gel) and run with 50 mM diethylenetriaminepentaacetic acid (DTPA) as the eluent. Control experiments were conducted to monitor the elution behaviour of unbound Zr-89 for quality control. Plates were then imaged on a Bruker In Vivo MS FX Pro imaging system using a radioisotopic phosphor screen. ˜100% chelation of the Zr-89 was observed and so the dendrimer was used directly for the imaging experiments.
Anaesthetized mice, with a cannulated tail vein, were placed in a combined MRI/PET system, comprising a 300 mm bore 7T ClinScan, running Siemens VB17, and removable PET insert containing 3 rings of 16 detector blocks with 15×15 LSO crystals (1.6×1.6×10 mm) per block, at the centre of the magnet bore operating under Siemens Inveon Acquisition Workplace (IAW) (Bruker, Germany). A 23 mm ID mouse head MRI RF coil inside the PET ring was used to acquire mouse head images simultaneously with the PET acquisition.
Mice were injected with approximately 5 MBq of Zr-89 labelled dendrimer 1b and imaged 40 hours and 5 days post-injection. At each imaging point a dose of Gadovist® contrast agent was injected to obtain pre- and post-contrast T1, T2, and dynamic image data. The injection dose at each timepoint was comprised of 50 μl Gadovist® diluted with PBS (1×) to give a total volume of 200 μl. This volume was injected via a catheter inserted into the tail vein in a slow bolus injection. Where collected, dynamic PET data acquisition was performed for 60 min. Prior to injection, fast localizer images and a 3D T1 weighted volumetric interpolated breath-hold examination VIBE sequence was acquired. Dynamic MRI images were acquired with a Gradient echo FLASH sequence, with 3 slices acquired each 2 seconds interval. The PET acquisition and dynamic MRI imaging was started simultaneously, a 2-3 min baseline period acquired and then the solution was injected. Following 15 min of dynamic MRI scanning, the T1 weighted VIBE was repeated, structural T2 weighted spin echo images acquired and a […] T1 weighted VIBE_DIXON sequence acquired to generate a 3D T1 map. […]

[3] = tested on: DU-145 subcutaneous tumours; test: Therapeutic study with radionuclide-containing dendrimers, DU-145 subcutaneous tumours; format: in vivo, Balb/C nude mice; conditions: FIG. 20
Excerpt: Healthy male Balb/C nude mice (˜20 g) from 8 weeks old were obtained from the ARC and used for this study. Mice were imported into the animal holding facility and monitored for 1 week prior to the study in order to acclimatise to the environment prior to injection of cells. All animals were provided with free access to food and water before and during the imaging experiments which were approved by the Animal Ethics Committee.
The following compounds were used in the study: • Example 4b • Example 5 • Jevtana® (cabazitaxel) • Comparative example A: a non-radionuclide-containing dendrimer, which is BHALys[Lys]32[α-DGA-Cabazitaxel]32†[ε-PEG˜2100]32‡. […] The actual mean number of PEG˜2100 groups attached to the BHALys[Lys]32 was determined experimentally by ^1H NMR. […]
78 mice were injected with 4×10^6 DU-145 cells in Matrigel into the right flank to induce subcutaneous tumours. Tumour volume and body mass was monitored twice per week before mice with evident tumour growth (approximately […] in volume, tumour volume=½ (length×width^2)) were randomly assigned to groups and injected with compounds according to the schedule outlined in the table below, at day 0, 7 and 14. Following injections, the mice were monitored three times per week for tumour volume and body mass. […]

BHALys[Lys]32[(α-DGA-CTX)31(α-DFO)1(ε-PEG2000)32] [Compound 3]
adverse health effects [1]: no adverse health effects

BHALys[Lys]32[(α-TDA-DTX)30(α-DFO)2(ε-PEG2000)32] [Compound 1b]
% ID/g at 40 hrs ([2]; Brain (minus tumour)): 2.0 % ID/g
% ID/g at 5 days ([2]; Brain (minus tumour)): 1.5 % ID/g
% ID/g at 40 hrs ([2]; Tumour): 4.3 % ID/g
% ID/g at 5 days ([2]; Tumour): 4.0 % ID/g
% ID/g at 40 hrs ([2]; Vascalature): 2.3 % ID/g
% ID/g at 5 days ([2]; Vascalature): 2.0 % ID/g
adverse health effects [1]: no adverse health effects

BHALys[Lys]32[(α-DGA-CTX)27(α-DOTA)2(ε-PEG2000)32] [Compound 4b]
suppression of tumour growth, ranking among groups ([3]; group 4: higher dose, 4b 8 mg/kg (6 MBq) day 0, then Comparative Example A 8 mg/kg days 7 and 14): most effective
suppression of tumour growth ([3]; groups 4 and 7: Lu-177 labelled 4b 8 or 5 mg/kg (6 MBq) day 0, then Comparative Example A days 7 and 14): effective in suppressing tumour growth
